Assay results: article PMC3164674

Biological target: MUC1 (mucin 1) on the surface of MCF-7 cells (human (MCF-7 breast cancer cell line)) (UniProt P15941)
Assay: flow cytometry on cells
Settings: 300 nM DNA; 5 mM Mg2+; MUC1+ MCF-7 vs MUC1- HepG2; S2.2 with 48-nt DNA spacer at 3' end; 100 mM NaCl, 5 mM MgCl2, pH 7.2, 300 nM DNA, 30 min; temperature not stated

Chain of UniProt P15941 (P15941 whole entry): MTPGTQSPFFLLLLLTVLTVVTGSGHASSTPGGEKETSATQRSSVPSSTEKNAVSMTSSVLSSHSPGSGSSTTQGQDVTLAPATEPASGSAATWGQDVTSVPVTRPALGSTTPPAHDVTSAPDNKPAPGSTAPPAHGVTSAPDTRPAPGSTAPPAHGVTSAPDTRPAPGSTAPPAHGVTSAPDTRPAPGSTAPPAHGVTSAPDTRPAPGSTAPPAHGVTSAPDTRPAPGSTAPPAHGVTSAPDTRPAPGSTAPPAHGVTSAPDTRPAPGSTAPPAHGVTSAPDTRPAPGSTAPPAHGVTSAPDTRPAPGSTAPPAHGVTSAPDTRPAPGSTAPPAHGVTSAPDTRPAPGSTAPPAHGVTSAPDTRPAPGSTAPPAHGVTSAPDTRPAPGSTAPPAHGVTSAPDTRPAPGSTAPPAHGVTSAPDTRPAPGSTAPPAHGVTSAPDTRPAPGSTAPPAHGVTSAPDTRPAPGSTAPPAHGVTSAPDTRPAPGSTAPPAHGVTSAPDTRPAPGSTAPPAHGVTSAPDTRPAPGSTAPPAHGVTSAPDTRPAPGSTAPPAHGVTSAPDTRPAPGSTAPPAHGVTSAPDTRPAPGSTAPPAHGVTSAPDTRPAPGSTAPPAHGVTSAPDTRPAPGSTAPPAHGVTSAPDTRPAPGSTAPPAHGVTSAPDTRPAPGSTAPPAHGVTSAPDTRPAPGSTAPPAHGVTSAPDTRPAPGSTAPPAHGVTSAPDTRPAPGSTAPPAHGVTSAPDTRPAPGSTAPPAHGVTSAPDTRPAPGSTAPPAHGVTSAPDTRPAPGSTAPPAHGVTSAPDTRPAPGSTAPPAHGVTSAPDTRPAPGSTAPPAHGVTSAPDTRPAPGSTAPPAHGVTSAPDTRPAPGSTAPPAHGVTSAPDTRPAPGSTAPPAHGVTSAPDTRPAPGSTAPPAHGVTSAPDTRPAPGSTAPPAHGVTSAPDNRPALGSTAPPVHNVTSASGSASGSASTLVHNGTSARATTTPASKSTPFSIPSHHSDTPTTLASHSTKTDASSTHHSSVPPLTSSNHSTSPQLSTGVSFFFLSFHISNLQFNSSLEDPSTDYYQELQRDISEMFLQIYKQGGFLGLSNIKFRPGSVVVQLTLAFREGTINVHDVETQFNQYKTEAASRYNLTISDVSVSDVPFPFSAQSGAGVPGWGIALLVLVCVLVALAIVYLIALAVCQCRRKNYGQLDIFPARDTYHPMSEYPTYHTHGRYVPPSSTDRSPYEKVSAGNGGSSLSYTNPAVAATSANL

GCAGTTGATCCTTTGGATACCCTGGTTCCCTTCCTTCTCTCTTCCTCTCTCCTTCTCTCTTCCTCTCTCCTTC [S2.2-spacer]
binding signal (fold (mean fluorescence MCF-7/HepG2)): 3.5
